Source: patent US20130017550

Key:
[1] = biological target: GST-PKC-θ, Q04759
[2] = biological target: Myc-PKC-θ

GST-PKC-θ, Q04759, sequence (Q04759 whole entry, looked up): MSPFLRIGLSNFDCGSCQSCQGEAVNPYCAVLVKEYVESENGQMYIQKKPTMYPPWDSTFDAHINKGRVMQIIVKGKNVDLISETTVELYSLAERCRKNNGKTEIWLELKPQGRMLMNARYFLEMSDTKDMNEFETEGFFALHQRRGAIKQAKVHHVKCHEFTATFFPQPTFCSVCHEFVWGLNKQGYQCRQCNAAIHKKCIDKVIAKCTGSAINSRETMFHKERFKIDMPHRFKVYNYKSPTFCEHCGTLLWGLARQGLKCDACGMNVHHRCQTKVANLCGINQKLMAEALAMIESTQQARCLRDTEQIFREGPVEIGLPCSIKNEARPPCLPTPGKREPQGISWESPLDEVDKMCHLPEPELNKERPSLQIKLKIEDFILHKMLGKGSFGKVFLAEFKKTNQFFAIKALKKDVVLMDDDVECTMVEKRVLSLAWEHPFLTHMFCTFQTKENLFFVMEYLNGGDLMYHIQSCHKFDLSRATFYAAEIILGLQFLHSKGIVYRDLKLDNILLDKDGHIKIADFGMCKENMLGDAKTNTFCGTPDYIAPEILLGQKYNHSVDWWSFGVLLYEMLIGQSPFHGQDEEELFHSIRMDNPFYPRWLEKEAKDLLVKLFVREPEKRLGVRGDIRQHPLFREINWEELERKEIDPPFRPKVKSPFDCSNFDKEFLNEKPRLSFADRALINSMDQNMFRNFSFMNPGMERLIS

B1: Flag-GLK (protein)
chain: MAQEDFELIQRIGSGTYGDVYKARNVNTGELAAIKVIKLEPGEDFAVVQQEIIMMKDCKHPNIVAYFGSYLRRDKLWICMEFCGGGSLQDIYHVTGPLSELQIAYVSRETLQGLYYLHSKGKMHRDIKGANILLTDNGHVKLADFGVSAQITATIAKRKSFIGTPYWMAPEVAAVERKGGYNQLCDLWAVGITAIELAELQPPMFDLHPMRALFLMTKSNFQPPKLKDKMKWSNSFHHFVKMALTKNPKKRPTAEKLLQHPFVTQHLTRSLAIELLDKVNNPDHSTYHDFDDDDPEPLVAVPHRIHSTSRNVREEKTRSEITFGQVKFDPPLRKETEPHHELPDSDGFLDSSEEIYYTARSNLDLQLEYGQGHQGGYFLGADKSLLKSVEEELHQRGHVAHLEDDEGDDDESKHSTLKAKIPPPLPPKPKSIFIPQEMHSTEDENQGTIKRCPMSGSPAKPSQVPPRPPPPRLPPHKPVALGNGMSSFQLNGERDGSLCQQQNEHRGTNLSRKEKKDVPKPISNGLPPTPKVHMGACFSKVFNGCPLKIHCASSWINPDTRDQYLIFGAEEGIYTLNLNELHETSMEQLFPRRCTWLYVMNNCLLSISGKASQLYSHNLPGLFDYARQMQKLPVAIPAHKLPDRILPRKFSVSAKIPETKWCQKCCVVRNPYTGHKYLCGALQTSIVLLEWVEPMQKFMLIKHIDFPIPCPLRMFEMLVVPEQEYPLVCVGVSRGRDFNQVVRFETVNPNSTSSWFTESDTPQTNVTHVTQLERDTILVCLDCCIKIVNLQGRLKSSRKLSSELTFDFQIESIVCLQDSVLAFWKHGMQGRSFRSNEVTQEISDSTRIFRLLGSDRVVVLESRPTDNPTANSNLYILAGHENSY
PKC-θ-T538 phosphorylation in in vitro kinase assays using purified proteins (immunoblot) [1]: PKC-θ-T538 was directly phosphorylated by GLK | PKC-θ phosphorylation in in vitro kinase assays (immunoblot) [2]: GLK phosphorylated PKC-θ at T538, but not at S676 or S695
